In general, Kd refers to the concentration at which binding is half-saturated.

This is an account of results in US20230391863A1 (published 2023).

The target of test [1] is A109 (SEQ ID NOs: 39 & 17) (Homo sapiens (Human), UniProt P0DOX7 1-214). Nature of the test: BLI (Octet RED96), affinity-purified antagonist captured on biosensor, ligand in solution. As to the method:
(§1) In this example, the human ligand binding activities of several bifunctional antagonist molecules were measured by biolayer interferometry (BLI) using Octet RED96 (FortéBIO, Pall Corporation, USA). Binding analysis was performed by capturing the polypeptide bifunctional antagonists to biosensors. To measure the rate of association and dissociation, the bifunctional antagonists-captured biosensors were dipped in wells containing different concentrations of ligands (such as TNF-α, Activin A, Activin B, Activin AB, myostatin, and GDF-11) diluted in 1× kinetic buffer for 10 min followed by 10-20 min in 1× kinetic buffer. The bifunctional polypeptide antagonists-captured sensors were also submerged in wells containing 1× kinetic buffer to allow single reference subtraction in order to compensate for natural dissociation of the captured bifunctional antagonists. The binding sensorgrams were collected using the 8-channel detection mode on the biosensor. Data were acquired and analyzed using the FortéBIO data acquisition software v11.1 (FortéBIO, Pall Corporation, USA).

In test [2] the target is A110 (SEQ ID NOs: 41 & 17) (Homo sapiens (Human), UniProt P0DOX7 1-214). The test is described as above. On the procedure: as §1

B1: human Activin A (ligand)
chain: GLECDGKVNICCKKQFFVSFKDIGWNDWIIAPSGYHANYCEGECPSHIAGTSGSSLSFHSTVINHYRMRGHSPFANLKSCCVPTKLRPMSMLYYDDGQNIIKKDIQNMIVEECGCS
modifications: Activin A is a disulfide-linked homodimer of two identical inhibin beta A chains. The chain is given once.
With B1, the Kd is about 0.52 nM in test [1] and about 0.16 nM in test [2].
